Assay results taken from publication PMC3282699, “S. pombe Kinesins-8 Promote Both Nucleation and Catastrophe of Microtubules” (PLoS ONE, 2012).

Key:
Klp6_(440)His (S. pombe) = Klp6_(440)His (S. pombe) (UniProt O59751)
Klp5FLGST = molecular target: T1, Klp5FLGST (S. pombe, UniProt O14343 1-883); test: pull-down; co-expressed in E. coli; sequential affinity purification from the bacterial lysate by the His tag (Ni column) and then the GST tag (eluted with 10 mM glutathione); SDS-PAGE, densitometry; conditions: partners not purified
T1 construct: Klp5, kinesin-8 of S. pombe, amino acids 1-883; it was only obtained co-expressed with Klp6FLHis; The cloning of this plasmid is not described in the methods; also called full-length Klp5; not shown: GST, C-terminal, kept
T1 sequence (looked up): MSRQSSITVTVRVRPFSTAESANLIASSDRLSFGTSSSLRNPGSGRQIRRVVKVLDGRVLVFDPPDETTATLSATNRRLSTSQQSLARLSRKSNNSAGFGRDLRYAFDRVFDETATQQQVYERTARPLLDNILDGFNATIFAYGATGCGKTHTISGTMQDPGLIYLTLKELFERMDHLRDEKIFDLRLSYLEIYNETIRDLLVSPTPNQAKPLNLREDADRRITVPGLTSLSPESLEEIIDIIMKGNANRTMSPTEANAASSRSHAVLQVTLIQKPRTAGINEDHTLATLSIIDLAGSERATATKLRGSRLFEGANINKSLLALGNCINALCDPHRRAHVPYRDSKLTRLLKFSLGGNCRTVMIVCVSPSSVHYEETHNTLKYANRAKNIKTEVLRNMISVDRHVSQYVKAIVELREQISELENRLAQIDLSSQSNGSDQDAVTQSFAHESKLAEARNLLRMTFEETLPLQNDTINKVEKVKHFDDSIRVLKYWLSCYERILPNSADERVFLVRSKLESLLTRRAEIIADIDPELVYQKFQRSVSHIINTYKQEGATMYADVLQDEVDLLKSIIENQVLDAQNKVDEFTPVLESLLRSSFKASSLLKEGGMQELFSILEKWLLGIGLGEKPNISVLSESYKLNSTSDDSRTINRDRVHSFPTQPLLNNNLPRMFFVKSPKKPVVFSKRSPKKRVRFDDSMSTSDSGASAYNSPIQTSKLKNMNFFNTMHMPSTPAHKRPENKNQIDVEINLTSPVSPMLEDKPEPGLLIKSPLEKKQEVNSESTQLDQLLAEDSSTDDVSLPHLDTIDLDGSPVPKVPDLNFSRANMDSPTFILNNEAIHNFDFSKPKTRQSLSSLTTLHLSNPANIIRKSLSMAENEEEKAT

[1] = molecular target: S. pombe GMPCPP microtubules (S. pombe), P04688
[2] = molecular target: S. pombe tubulin heterodimer (S. pombe), P04688
[3] = molecular target: Taxol stabilised pig brain microtubules (pig) (UniProt P02550)
[4] = molecular target: the molecule itself; test: SEC; Superose-12 HR 10/300 GL at 4°C, 0.5 ml/min, 100 mM PIPES, 200 mM NaCl, 1 mM MgCl2, 2 mM EDTA, pH 6.9; elution compared with Ovalbumin (43 kDa) and Bovine Serum Albumin (67 kDa)
[5] = molecular target: S. pombe single isoform (α1β) tubulin heterodimer (S. pombe) (UniProt P04688); test: SEC; 15 µM tubulin with 10.7 µM dimeric Klp6_(440)His incubated at 4°C for 30 min in 80 mM PIPES, 2.5 mM MgCl2, 1 mM EDTA, 1.5 mM GMPCPP, 1 mM DTT pH 6.9; Superose-12 at 4°C; fractions on SDS-PAGE, fluorescent stain quantified
[6] = molecular target: S. pombe GMPCPP microtubules (S. pombe) (UniProt P04688)
[7] = molecular target: S. pombe tubulin heterodimer (S. pombe) (UniProt P04688)
[8] = molecular target: pig brain tubulin heterodimer (pig) (UniProt P02550)
Sequence of pig brain tubulin heterodimer (pig) (P02550 whole entry, chain 1 of 2): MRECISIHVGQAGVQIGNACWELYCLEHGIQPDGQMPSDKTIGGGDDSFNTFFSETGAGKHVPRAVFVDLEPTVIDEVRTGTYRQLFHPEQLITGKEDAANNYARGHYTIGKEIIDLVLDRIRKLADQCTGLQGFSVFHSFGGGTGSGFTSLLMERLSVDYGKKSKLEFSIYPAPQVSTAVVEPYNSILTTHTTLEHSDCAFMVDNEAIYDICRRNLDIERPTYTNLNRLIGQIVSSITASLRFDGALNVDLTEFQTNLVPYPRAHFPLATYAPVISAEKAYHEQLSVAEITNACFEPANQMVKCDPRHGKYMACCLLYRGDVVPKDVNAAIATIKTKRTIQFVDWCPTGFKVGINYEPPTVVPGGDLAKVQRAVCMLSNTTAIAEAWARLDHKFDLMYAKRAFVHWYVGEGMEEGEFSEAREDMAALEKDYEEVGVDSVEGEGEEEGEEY
Sequence of pig brain tubulin heterodimer (pig) (Q767L7 whole entry, chain 2 of 2, further chain): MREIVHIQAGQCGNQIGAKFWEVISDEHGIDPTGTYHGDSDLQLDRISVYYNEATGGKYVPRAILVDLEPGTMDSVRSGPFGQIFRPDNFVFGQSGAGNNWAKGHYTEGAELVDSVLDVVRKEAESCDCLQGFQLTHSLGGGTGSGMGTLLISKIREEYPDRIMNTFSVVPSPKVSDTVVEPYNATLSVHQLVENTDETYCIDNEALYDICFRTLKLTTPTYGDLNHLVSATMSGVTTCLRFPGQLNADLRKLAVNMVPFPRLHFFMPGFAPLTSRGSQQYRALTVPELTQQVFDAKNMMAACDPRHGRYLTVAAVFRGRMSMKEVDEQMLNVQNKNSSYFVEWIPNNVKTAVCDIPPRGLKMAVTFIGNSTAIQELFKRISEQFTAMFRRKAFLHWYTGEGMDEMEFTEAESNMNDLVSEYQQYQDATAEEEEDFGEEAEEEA

Sequence of S. pombe tubulin heterodimer (S. pombe), P04688 (P04688 whole entry, chain 1 of 2): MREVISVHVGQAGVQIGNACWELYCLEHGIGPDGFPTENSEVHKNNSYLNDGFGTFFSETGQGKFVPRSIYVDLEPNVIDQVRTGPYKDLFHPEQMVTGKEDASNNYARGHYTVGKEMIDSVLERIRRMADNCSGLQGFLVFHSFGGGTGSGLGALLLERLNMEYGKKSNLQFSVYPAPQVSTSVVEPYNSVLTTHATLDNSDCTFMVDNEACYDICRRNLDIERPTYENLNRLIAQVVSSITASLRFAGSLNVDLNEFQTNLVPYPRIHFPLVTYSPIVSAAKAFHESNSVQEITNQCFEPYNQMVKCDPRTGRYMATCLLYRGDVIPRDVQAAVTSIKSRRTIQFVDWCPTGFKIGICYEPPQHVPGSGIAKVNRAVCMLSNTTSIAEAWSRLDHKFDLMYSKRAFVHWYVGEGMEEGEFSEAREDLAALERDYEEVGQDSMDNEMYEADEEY
Sequence of S. pombe tubulin heterodimer (S. pombe), P04688 (P05219 whole entry, chain 2 of 2, further chain): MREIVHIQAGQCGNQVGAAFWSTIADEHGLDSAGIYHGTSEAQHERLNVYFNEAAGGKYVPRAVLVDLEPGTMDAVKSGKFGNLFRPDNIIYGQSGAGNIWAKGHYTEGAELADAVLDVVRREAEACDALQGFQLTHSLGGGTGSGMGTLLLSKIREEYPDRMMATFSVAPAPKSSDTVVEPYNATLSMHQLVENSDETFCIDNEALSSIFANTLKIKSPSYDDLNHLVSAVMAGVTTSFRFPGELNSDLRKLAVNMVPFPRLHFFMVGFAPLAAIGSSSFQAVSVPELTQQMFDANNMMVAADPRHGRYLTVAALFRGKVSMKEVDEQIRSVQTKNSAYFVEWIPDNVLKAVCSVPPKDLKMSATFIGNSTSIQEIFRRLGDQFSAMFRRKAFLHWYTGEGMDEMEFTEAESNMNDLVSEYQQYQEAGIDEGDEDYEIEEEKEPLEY
Sequence of S. pombe tubulin heterodimer (S. pombe) (P04688 whole entry, chain 1 of 2): as the sequence (P04688 whole entry, chain 1 of 2) above
Sequence of S. pombe tubulin heterodimer (S. pombe) (P05219 whole entry, chain 2 of 2, further chain): as the sequence (P05219 whole entry, chain 2 of 2, further chain) above

“S. pombe tubulin heterodimer (from UniProt P04688 1-455; P05219 1-448) (complex)” was tested, and the Ki of tubulin heterodimers for inhibition of the Klp6 (440)His ATPase stimulated by 73 nM Taxol stabilised pig brain microtubules (blocked pair: m3 with m12) (Klp6_(440)His (S. pombe)) was 121 nM.

For “pig brain tubulin heterodimer (from UniProt P02550 1-451; Q767L7 1-444) (complex)”, the Ki of tubulin heterodimers for inhibition of the Klp6 (440)His ATPase stimulated by 73 nM Taxol stabilised pig brain microtubules (blocked pair: m3 with m12) (Klp6_(440)His (S. pombe)) was 175 nM.

B1: Klp6FLHis (natural protein, S. pombe, UniProt O59751 1-784, looked up)
chain: MKEGSSISVAVRVRPFTEREKGLLAETPKSKEFLGDGSLAVSNTSSNTFCTNGIRKIVRVLDDNVLIFDPPEENPLAKVQKSLLPAGKRFRDVRYAFDRLFGEEASQEDVYKGTTEPLLDSVLQGYNATVFAYGATGCGKTHTISGRPDDPGIIFLTMRALLDRVEGLKRTMNVDISVSYLEIYNEKIRDLLVQDPLSMEKPKSLNICEDAEQNVSVPGLSYFTPTNLEEVMEIIIRGNSNRTMSPTEANAVSSRSHAVLQIYITQTPKSGEKQEESESQNSHKVRSVFSFIDLAGSERASATKNRGKRLVEGANINRSLLALGNCINSLCEPRRRQHVPYRDSKLTRLLKFSLGGNCRTCMIVCISPSSEHYDETHNTLKYGNRAKNIKTKVSRNVVSVDRHVSEYVRTIYELRQKVSILQKRIAEESKQLALNKEVRKISSREIKMLDARSMLKNSFDGSRDLQKSLIEHVRTLRRIEDEITLTKMWISIAKESDAMSGHNIKSVETRLAKLYDQRSLITAKVNPEEICKTFQNSISHIVSSFKGEGADMYADMLQDDVDLLKSIIENQILDAKHESETFSSTSRKLIQNLFLLFPLLPGNAIDVNESLARAFDQLVGIVPSEPTIQVPNLIEKGKAPLLSMFEIPRSPSRFKARSPSKAARVLKKPLKKRVRFSEVPTTSSVPPVEIKNKDSKPKVEKSLDKHNMNNDRSFLVPSRDARNSLTSLSLHSNVAKNKSSHSSKWPTHTLSPIITTALKQPVRRISLVSQPLQKTGGTENTPNA
notes: Klp6, kinesin-8 of S. pombe, amino acids 1-784; also called full-length Klp6; Klp6(aa1-784)/GlyGly/6xHis tag; not shown: His6 (after a GlyGly linker), C-terminal, kept
With B1 the “molar ratio of Klp6FLHis : Klp5FLGST in the sequentially purified fraction” value (Klp5FLGST) was 3.2 Klp6FLHis per Klp5FLGST.

B2: Klp6_(440)His, O59751 1-440 (domain or fragment)
chain: MKEGSSISVAVRVRPFTEREKGLLAETPKSKEFLGDGSLAVSNTSSNTFCTNGIRKIVRVLDDNVLIFDPPEENPLAKVQKSLLPAGKRFRDVRYAFDRLFGEEASQEDVYKGTTEPLLDSVLQGYNATVFAYGATGCGKTHTISGRPDDPGIIFLTMRALLDRVEGLKRTMNVDISVSYLEIYNEKIRDLLVQDPLSMEKPKSLNICEDAEQNVSVPGLSYFTPTNLEEVMEIIIRGNSNRTMSPTEANAVSSRSHAVLQIYITQTPKSGEKQEESESQNSHKVRSVFSFIDLAGSERASATKNRGKRLVEGANINRSLLALGNCINSLCEPRRRQHVPYRDSKLTRLLKFSLGGNCRTCMIVCISPSSEHYDETHNTLKYGNRAKNIKTKVSRNVVSVDRHVSEYVRTIYELRQKVSILQKRIAEESKQLALNKEVRK
Work on B2 yielded a Km of the microtubule stimulated ATPase (S. pombe GMPCPP microtubules), linked assay at 25°C [1] of 0.056 µM and a Km of the tubulin heterodimer stimulated ATPase (S. pombe tubulin), linked assay at 25°C [2] of 0.373 µM.

B3: Klp6_(440)His (domain or fragment, S. pombe, UniProt O59751 1-440, looked up)
chain: B2 chain
notes: Klp6 of S. pombe, amino acids 1-440: motor domain and complete putative coiled-coil domain; Homodimer by Superose 12 gel filtration; also called Klp6(aa1-440)/GlyGly/6xHis tag; Klp440His; source: E. coli Rosetta 2 (DE3), purified (HisTrap); not shown: His6 (after a GlyGly linker), C-terminal, kept
For B3, the Km of the microtubule stimulated ATPase (Taxol stabilised pig brain microtubules), linked assay at 25°C [3] was 0.085 µM, the “stoichiometry N” value [4] was 2 and the stoichiometry N (tubulin heterodimer per kinesin head) [5] was 1.

B4: Klp5_(436)GST (domain or fragment)
chain: MSRQSSITVTVRVRPFSTAESANLIASSDRLSFGTSSSLRNPGSGRQIRRVVKVLDGRVLVFDPPDETTATLSATNRRLSTSQQSLARLSRKSNNSAGFGRDLRYAFDRVFDETATQQQVYERTARPLLDNILDGFNATIFAYGATGCGKTHTISGTMQDPGLIYLTLKELFERMDHLRDEKIFDLRLSYLEIYNETIRDLLVSPTPNQAKPLNLREDADRRITVPGLTSLSPESLEEIIDIIMKGNANRTMSPTEANAASSRSHAVLQVTLIQKPRTAGINEDHTLATLSIIDLAGSERATATKLRGSRLFEGANINKSLLALGNCINALCDPHRRAHVPYRDSKLTRLLKFSLGGNCRTVMIVCVSPSSVHYEETHNTLKYANRAKNIKTEVLRNMISVDRHVSQYVKAIVELREQISELENRLAQIDLSSQSN
With B4 the Km of the microtubule stimulated ATPase (Taxol stabilised pig brain microtubules), linked assay at 25°C [3] was 0.0278 µM.

B5: Klp5_(436)GST, O14343 1-436 (domain or fragment)
chain: B4 chain
B5 gave a Km of the microtubule stimulated ATPase (S. pombe GMPCPP microtubules), linked assay at 25°C [1] of 0.045 µM and a Km of the tubulin heterodimer stimulated ATPase (S. pombe tubulin), linked assay at 25°C [2] of 0.108 µM.

B6: Klp5_(436) (domain or fragment)
chain: B4 chain
B6 gave a Km of the microtubule stimulated ATPase (S. pombe GMPCPP microtubules), linked assay at 25°C [6] of 0.05 µM, a Km of the tubulin heterodimer stimulated ATPase (S. pombe tubulin), linked assay at 25°C [7] of 0.336 µM and a Km of the microtubule stimulated ATPase (Taxol stabilised pig brain microtubules), linked assay at 25°C [3] of 0.045 µM. It also gave a Km of the tubulin heterodimer stimulated ATPase (pig brain tubulin), linked assay at 25°C [8] of 0.427 µM.
